Assay results from patent US11932908B2, “Compositions and methods for diagnosis and treatment of epilepsy” (THE REGENTS OF THE UNIVERSITY OF CALIFORNIA, priority 2004, dated 2024).
“Also recorded” adds a separate entry of the source.

Assays:
[1] = tested on: mouse hippocampal primary culture neurons; settings: 24, 36 and 48 hours after transfection; mutants compared to wild-type EFHC1
PQ type VDCC (Cav2.1) = molecular target: T1, PQ type VDCC (Cav2.1) (Oryctolagus cuniculus, UniProt P27884); experiment: Patch-clamp analyses of HEK cell line with P/Q type VDCCs and wild type EFHC1 or mutant constructs; type: cell-based
T1 construct: expressed in transfected cells; host or cells: HEK cell line
T1 sequence (P27884 whole entry): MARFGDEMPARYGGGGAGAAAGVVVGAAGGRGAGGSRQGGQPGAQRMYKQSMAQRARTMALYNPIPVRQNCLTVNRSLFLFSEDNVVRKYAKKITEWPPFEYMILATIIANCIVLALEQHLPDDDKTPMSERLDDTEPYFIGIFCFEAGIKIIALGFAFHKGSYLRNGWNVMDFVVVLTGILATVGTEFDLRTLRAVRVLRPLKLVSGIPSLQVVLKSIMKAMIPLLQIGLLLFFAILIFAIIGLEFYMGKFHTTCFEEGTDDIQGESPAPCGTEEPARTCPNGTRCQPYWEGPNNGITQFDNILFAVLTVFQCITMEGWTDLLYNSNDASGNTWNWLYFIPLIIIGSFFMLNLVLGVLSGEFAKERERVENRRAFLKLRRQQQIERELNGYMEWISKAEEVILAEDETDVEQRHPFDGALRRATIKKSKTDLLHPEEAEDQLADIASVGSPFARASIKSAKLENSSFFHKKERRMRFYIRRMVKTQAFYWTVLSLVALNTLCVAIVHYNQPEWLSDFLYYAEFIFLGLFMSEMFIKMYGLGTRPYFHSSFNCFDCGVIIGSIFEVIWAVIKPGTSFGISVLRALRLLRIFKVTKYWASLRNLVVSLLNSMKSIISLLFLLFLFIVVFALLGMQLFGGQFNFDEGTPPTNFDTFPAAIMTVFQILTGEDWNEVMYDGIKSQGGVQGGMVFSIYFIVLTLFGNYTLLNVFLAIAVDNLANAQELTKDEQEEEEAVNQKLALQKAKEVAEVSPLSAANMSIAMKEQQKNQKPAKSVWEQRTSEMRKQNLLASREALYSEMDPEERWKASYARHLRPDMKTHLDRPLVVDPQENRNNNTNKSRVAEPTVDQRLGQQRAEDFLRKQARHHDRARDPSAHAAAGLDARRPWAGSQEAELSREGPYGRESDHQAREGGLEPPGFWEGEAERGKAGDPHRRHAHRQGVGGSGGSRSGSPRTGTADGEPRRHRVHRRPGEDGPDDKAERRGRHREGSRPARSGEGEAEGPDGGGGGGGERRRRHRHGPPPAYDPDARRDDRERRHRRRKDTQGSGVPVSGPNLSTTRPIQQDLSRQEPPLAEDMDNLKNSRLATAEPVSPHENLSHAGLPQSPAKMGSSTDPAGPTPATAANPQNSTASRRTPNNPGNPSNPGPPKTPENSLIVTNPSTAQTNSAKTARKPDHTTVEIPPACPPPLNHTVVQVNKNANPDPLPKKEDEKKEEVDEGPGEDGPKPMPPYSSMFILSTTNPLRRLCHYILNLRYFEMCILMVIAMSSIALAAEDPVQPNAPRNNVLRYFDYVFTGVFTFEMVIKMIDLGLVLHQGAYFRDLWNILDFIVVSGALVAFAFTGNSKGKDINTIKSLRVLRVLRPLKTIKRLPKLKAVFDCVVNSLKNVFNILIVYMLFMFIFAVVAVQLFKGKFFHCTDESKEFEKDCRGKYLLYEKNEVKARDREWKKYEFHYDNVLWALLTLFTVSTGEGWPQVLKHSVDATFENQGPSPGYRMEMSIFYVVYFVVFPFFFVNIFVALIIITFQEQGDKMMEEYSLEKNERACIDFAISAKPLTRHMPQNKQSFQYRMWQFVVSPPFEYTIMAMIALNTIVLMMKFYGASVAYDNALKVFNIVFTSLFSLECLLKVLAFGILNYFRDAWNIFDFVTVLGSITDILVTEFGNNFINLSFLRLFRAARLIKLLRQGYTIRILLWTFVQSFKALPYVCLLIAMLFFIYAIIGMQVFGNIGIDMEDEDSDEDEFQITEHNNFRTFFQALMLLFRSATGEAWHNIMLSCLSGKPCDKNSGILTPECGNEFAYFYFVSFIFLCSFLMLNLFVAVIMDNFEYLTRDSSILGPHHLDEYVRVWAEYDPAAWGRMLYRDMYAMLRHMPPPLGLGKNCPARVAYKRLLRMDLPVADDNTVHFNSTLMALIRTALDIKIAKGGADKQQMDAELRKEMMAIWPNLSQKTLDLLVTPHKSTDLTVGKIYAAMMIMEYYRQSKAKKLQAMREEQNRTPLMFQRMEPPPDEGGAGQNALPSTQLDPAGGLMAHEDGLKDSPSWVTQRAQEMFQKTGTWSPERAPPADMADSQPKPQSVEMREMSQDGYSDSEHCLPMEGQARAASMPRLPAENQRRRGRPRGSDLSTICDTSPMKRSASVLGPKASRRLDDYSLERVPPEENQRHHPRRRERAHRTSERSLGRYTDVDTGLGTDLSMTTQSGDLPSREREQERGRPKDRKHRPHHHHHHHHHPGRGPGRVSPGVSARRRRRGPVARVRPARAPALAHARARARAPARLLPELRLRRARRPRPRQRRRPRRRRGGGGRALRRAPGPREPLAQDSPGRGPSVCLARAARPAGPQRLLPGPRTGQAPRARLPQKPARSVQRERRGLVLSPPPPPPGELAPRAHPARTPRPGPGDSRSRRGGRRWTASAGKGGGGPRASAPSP
T1 sequence (P13806 27-1106 partner): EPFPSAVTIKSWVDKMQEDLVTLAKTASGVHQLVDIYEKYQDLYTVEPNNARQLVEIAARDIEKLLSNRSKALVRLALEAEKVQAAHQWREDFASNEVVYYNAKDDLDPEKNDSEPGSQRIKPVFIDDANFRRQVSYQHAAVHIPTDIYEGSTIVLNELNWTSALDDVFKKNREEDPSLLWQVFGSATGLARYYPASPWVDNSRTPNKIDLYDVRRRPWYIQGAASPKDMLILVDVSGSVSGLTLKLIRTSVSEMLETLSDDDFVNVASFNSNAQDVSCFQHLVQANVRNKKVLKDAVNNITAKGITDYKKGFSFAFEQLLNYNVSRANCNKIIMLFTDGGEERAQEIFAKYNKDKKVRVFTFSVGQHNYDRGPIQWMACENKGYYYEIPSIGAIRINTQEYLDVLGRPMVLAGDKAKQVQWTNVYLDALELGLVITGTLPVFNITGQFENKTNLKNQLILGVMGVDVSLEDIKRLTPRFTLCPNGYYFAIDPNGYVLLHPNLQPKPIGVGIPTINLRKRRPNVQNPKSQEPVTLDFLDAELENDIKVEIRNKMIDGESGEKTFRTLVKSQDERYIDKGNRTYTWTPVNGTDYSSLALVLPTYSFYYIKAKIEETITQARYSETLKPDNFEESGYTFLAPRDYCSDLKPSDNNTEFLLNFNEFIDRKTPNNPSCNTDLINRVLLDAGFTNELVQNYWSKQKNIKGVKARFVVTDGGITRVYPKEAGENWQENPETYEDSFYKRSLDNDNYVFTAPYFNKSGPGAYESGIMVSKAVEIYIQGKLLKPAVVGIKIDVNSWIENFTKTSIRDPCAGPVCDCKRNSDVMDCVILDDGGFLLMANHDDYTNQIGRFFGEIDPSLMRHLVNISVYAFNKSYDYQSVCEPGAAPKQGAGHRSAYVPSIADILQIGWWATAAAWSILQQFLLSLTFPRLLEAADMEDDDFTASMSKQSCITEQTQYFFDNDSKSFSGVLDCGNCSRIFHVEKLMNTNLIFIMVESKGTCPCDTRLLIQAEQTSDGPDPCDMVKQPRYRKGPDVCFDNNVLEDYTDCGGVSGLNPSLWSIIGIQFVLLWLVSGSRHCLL
T1 sequence (P19517 whole entry partner): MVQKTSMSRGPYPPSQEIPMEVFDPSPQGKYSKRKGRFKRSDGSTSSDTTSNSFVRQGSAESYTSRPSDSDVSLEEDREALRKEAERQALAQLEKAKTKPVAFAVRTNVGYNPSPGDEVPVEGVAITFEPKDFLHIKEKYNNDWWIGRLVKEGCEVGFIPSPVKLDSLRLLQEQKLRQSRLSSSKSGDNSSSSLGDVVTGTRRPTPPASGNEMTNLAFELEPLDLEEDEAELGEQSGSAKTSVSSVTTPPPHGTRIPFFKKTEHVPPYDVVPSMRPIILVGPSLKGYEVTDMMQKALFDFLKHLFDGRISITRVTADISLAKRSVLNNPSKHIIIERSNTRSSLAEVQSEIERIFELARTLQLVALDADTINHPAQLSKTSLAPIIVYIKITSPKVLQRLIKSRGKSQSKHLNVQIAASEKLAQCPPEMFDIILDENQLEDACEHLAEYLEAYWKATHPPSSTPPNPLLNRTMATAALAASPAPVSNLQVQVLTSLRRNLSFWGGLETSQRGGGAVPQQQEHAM

B1: P77T/R221H: EFHC1 protein with the double mutation P77T and R221H (protein)
chain: MVSNPVHGLPFLPGTSFKDSTKTAFHRSQTLSYRNGYAIVRRPTVGIGGDRLQFNQLSQAELDELASKAPVLTYGQTKQAPPADFIPAHVAFDKKVLKFDAYFQEDVPMSTEEQYRIRQVNIYYYLEDDSMSVIEPVVENSGILQGKLIKRQRLAKNDRGDHYHWKDLNRGINITIYGKTFRVVDCDQFTQVFLESQGIELNPPEKMALDPYTELRKQPLHKYVTPSDFDQLKQFLTFDKQVLRFYAIWDDTDSMYGECRTYIIHYYLMDDTVEIREVHERNDGRDPFPLLMNRQRVPKVLVENAKNFPQCVLEISDQEVLEWYTAKDFIVGKSLTILGRTFFIYDCDPFTRRYYKEKFGITDLPRIDVSKREPPPVKQELPPYNGFGLVEDSAQNCFTLIPKAPKKDVIKMLVNDNKVLRYLAVLESPIPEDKDRRFVFSYFLATDMISIFEPPVRNSGIIGGKYLGRTKVVKPYSTVDNPVYYGPSDFFIGAVIEVFGHRFIILDTDEYVLKYMESNAAQYSPEALASIQNHVRKREAPAPEAESKQTEKDPGVQELEALIDTIQKQLKDHSCKDNIREAFQIYDKEASGYVDRDMFFKICESLNVPVDDSLVKELIRMCSHGEGKINYYNFVRAFSN
- cell-death effect (GFP-positive surviving cell numbers) [1]: significantly reduced; also recorded: significantly reversed

B2: 1619L: EFHC1 protein with coding polymorphism I619L (protein, UniProt Q5JVL4 1-640, looked up, variant I619L)
EF-hand domain-containing …: MVSNPVHGLPFLPGTSFKDSTKTAFHRSQTLSYRNGYAIVRRPTVGIGGDRLQFNQLSQAELDELASKAPVLTYGQPKQAPPADFIPAHVAFDKKVLKFDAYFQEDVPMSTEEQYRIRQVNIYYYLEDDSMSVIEPVVENSGILQGKLIKRQRLAKNDRGDHYHWKDLNRGINITIYGKTFRVVDCDQFTQVFLESQGIELNPPEKMALDPYTELRKQPLRKYVTPSDFDQLKQFLTFDKQVLRFYAIWDDTDSMYGECRTYIIHYYLMDDTVEIREVHERNDGRDPFPLLMNRQRVPKVLVENAKNFPQCVLEISDQEVLEWYTAKDFIVGKSLTILGRTFFIYDCDPFTRRYYKEKFGITDLPRIDVSKREPPPVKQELPPYNGFGLVEDSAQNCFALIPKAPKKDVIKMLVNDNKVLRYLAVLESPIPEDKDRRFVFSYFLATDMISIFEPPVRNSGIIGGKYLGRTKVVKPYSTVDNPVYYGPSDFFIGAVIEVFGHRFIILDTDEYVLKYMESNAAQYSPEALASIQNHVRKREAPAPEAESKQTEKDPGVQELEALIDTIQKQLKDHSCKDNIREAFQIYDKEASGYVDRDMFFKICESLNVPVDDSLVKELLRMCSHGEGKINYYNFVRAFSN
- cell-death effect (GFP-positive surviving cell numbers) [1]: largely maintained

B3: P77T: EFHC1 protein with JME missense mutation P77T (Pro77Thr) (protein)
chain: MVSNPVHGLPFLPGTSFKDSTKTAFHRSQTLSYRNGYAIVRRPTVGIGGDRLQFNQLSQAELDELASKAPVLTYGQTKQAPPADFIPAHVAFDKKVLKFDAYFQEDVPMSTEEQYRIRQVNIYYYLEDDSMSVIEPVVENSGILQGKLIKRQRLAKNDRGDHYHWKDLNRGINITIYGKTFRVVDCDQFTQVFLESQGIELNPPEKMALDPYTELRKQPLRKYVTPSDFDQLKQFLTFDKQVLRFYAIWDDTDSMYGECRTYIIHYYLMDDTVEIREVHERNDGRDPFPLLMNRQRVPKVLVENAKNFPQCVLEISDQEVLEWYTAKDFIVGKSLTILGRTFFIYDCDPFTRRYYKEKFGITDLPRIDVSKREPPPVKQELPPYNGFGLVEDSAQNCFTLIPKAPKKDVIKMLVNDNKVLRYLAVLESPIPEDKDRRFVFSYFLATDMISIFEPPVRNSGIIGGKYLGRTKVVKPYSTVDNPVYYGPSDFFIGAVIEVFGHRFIILDTDEYVLKYMESNAAQYSPEALASIQNHVRKREAPAPEAESKQTEKDPGVQELEALIDTIQKQLKDHSCKDNIREAFQIYDKEASGYVDRDMFFKICESLNVPVDDSLVKELIRMCSHGEGKINYYNFVRAFSN
- Ca2+ current density of P/Q-type VDCC (Cav2.1) (PQ type VDCC (Cav2.1); cells co-transfected with P/Q-type VDCC and EFHC1 constructs): moderately increased
- Activation V0.5 (mV) (PQ type VDCC (Cav2.1); half-maximal voltage of activation, mean ± SEM): 23.0 ± 3.2 mV
- Inactivation V0.5 (mV) (PQ type VDCC (Cav2.1); half-maximal voltage of inactivation, mean ± SEM): −15.8 ± 1.4 mV
- inactivation speed of P/Q type VDCC (decelerating effect on calcium inactivation) (PQ type VDCC (Cav2.1); patch-clamp): abolished the decelerating effect
- Activation k (mV) (PQ type VDCC (Cav2.1); slope factor, mean ± SEM): 8.87 ± 1.67 mV
- Inactivation K (mV) (PQ type VDCC (Cav2.1); slope factor, mean ± SEM): 6.59 ± 0.44 mV
- cell-death effect (GFP-positive surviving cell numbers) [1]: significantly reversed

B4: R159W: EFHC1 protein with coding polymorphism R159W (Arg159Trp) (protein)
chain: MVSNPVHGLPFLPGTSFKDSTKTAFHRSQTLSYRNGYAIVRRPTVGIGGDRLQFNQLSQAELDELASKAPVLTYGQPKQAPPADFIPAHVAFDKKVLKFDAYFQEDVPMSTEEQYRIRQVNIYYYLEDDSMSVIEPVVENSGILQGKLIKRQRLAKNDWGDHYHWKDLNRGINITIYGKTFRVVDCDQFTQVFLESQGIELNPPEKMALDPYTELRKQPLRKYVTPSDFDQLKQFLTFDKQVLRFYAIWDDTDSMYGECRTYIIHYYLMDDTVEIREVHERNDGRDPFPLLMNRQRVPKVLVENAKNFPQCVLEISDQEVLEWYTAKDFIVGKSLTILGRTFFIYDCDPFTRRYYKEKFGITDLPRIDVSKREPPPVKQELPPYNGFGLVEDSAQNCFTLIPKAPKKDVIKMLVNDNKVLRYLAVLESPIPEDKDRRFVFSYFLATDMISIFEPPVRNSGIIGGKYLGRTKVVKPYSTVDNPVYYGPSDFFIGAVIEVFGHRFIILDTDEYVLKYMESNAAQYSPEALASIQNHVRKREAPAPEAESKQTEKDPGVQELEALIDTIQKQLKDHSCKDNIREAFQIYDKEASGYVDRDMFFKICESLNVPVDDSLVKELIRMCSHGEGKINYYNFVRAFSN
- cell-death effect (GFP-positive surviving cell numbers) [1]: largely maintained

B5: R182H: EFHC1 protein with coding polymorphism R182H (Arg182His) (protein)
chain: MVSNPVHGLPFLPGTSFKDSTKTAFHRSQTLSYRNGYAIVRRPTVGIGGDRLQFNQLSQAELDELASKAPVLTYGQPKQAPPADFIPAHVAFDKKVLKFDAYFQEDVPMSTEEQYRIRQVNIYYYLEDDSMSVIEPVVENSGILQGKLIKRQRLAKNDRGDHYHWKDLNRGINITIYGKTFHVVDCDQFTQVFLESQGIELNPPEKMALDPYTELRKQPLRKYVTPSDFDQLKQFLTFDKQVLRFYAIWDDTDSMYGECRTYIIHYYLMDDTVEIREVHERNDGRDPFPLLMNRQRVPKVLVENAKNFPQCVLEISDQEVLEWYTAKDFIVGKSLTILGRTFFIYDCDPFTRRYYKEKFGITDLPRIDVSKREPPPVKQELPPYNGFGLVEDSAQNCFTLIPKAPKKDVIKMLVNDNKVLRYLAVLESPIPEDKDRRFVFSYFLATDMISIFEPPVRNSGIIGGKYLGRTKVVKPYSTVDNPVYYGPSDFFIGAVIEVFGHRFIILDTDEYVLKYMESNAAQYSPEALASIQNHVRKREAPAPEAESKQTEKDPGVQELEALIDTIQKQLKDHSCKDNIREAFQIYDKEASGYVDRDMFFKICESLNVPVDDSLVKELIRMCSHGEGKINYYNFVRAFSN
- cell-death effect (GFP-positive surviving cell numbers) [1]: largely maintained
